From patent US20030200555

Target: T1, coumarin-CO-REVNFEVEFR
T1 chain: REVNFEVEFR

B1: BACE 1, soluble (transmembrane domain and cytoplasmic extension excluded) human protein produced in a baculovirus expression system (protein)
chain: TQHGIRLPLRSGLGGAPLGLRLPRETDEEPEEPGRRGSFVEMVDNLRGKSGQGYYVEMTVGSPPQTLNILVDTGSSNFAVGAAPHPFLHRYYQRQLSSTYRDLRKGVYVPYTQGKWEGELGTDLVSIPHGPNVTVRANIAAITESDKFFINGSNWEGILGLAYAEIARPDDSLEPFFDSLVKQTHVPNLFSLQLCGAGFPLNQSEVLASVGGSMIIGGIDHSLYTGSLWYTPIRREWYYEVIIVRVEINGQDLKMDCKEYNYDKSIVDSGTTNLRLPKKVFEAAVKSIKAASSTEKFPDGFWLGEQLVCWQAGTTPWNIFPVISLYLMGEVTNQSFRITILPQQYLRPVEDVATSQDDCYKFAISQSSTGTVMGAVIMEGFYVVFDRARKRIGFAVSACHVHDEFRTAAVEGPFVTLDMEDCGYNIPQTDESTLMT
  Km: The Km of the substrate is greater than 100 µM and cannot be determined due to the limit of solubility of the substrate
